Measurements as given in patent US8846363B2, “Compositions of and methods of using sulfatases from Flavobacterium heparinum” (priority 2007, dated 2014).

B1: Flavobacterium heparinum 6-O-sulfatase (ORF B), recombinant, NH2-terminal truncation lacking signal sequence, SEQ ID NO: 2 (Pedobacter heparinus DSM 2366) (protein)
chain: TLMSCQQPKPAESAKRPNIVFIMTDDHTIQAISAYGSKLVKTPNLDRIANEGMLFNNCFVTNAVCGPSRATILTGKYSHLNGLTDNSKVFDSTQVIYPQLLKKAGYQTAMIGKWHLGSTPMGFDYYSILPNQGQYYQPEFIENGHLVKEKGYVTDLITDKAIGFLEKRDHDKPFLMIYQHKAPHRNWLPAPRHLGMFDDTVFPEPANLLDDFKGRGRAAKEQLMNISTDMWPAWDLKMLSTAQLDSMAKLPVSPKFKDAKGDDYQQANDPSLDKARFFEVYNRMTDAEKVQWRKVYDKRVAEFKRLNPKGADLVRWKYQQYMRDYLACVVSVDENVGRLMDYLKKIGELDNTIIVYTSDQGFYLGEHGYFDKRFMYDESFRTPLMVRYPPSVKAGSVSNAFAMNLDFAPTLLDYAGVKIPADMQGLSLRPVLDNAGKSPENWRKAVYYHYYEFPSWHMVKRHYGIRTERYKLIHFYNDIDEWELYDMQKDPHEMQNLYNDKAYEPIIKDLKVQMKKLQVQYKDTNPTEAL
notes: E. coli BL21(DE3), N-terminal 6xHis removed by thrombin
B2: Flavobacterium heparinum N-sulfamidase (ORF C), recombinant, NH2-terminal truncation lacking signal sequence, SEQ ID NO: 4 (Pedobacter heparinus DSM 2366) (protein)
chain: SCTSPEKKTDRPNILMIMSDNQSWNHVGSYGDQTVRTPNMDRIAKEGVRFTNAFCSSPSCTPARAGMLTGQDIWRLEDGGNLWGVLPVKYKVYPDLLEEAGYAIGFQGKGWGPGSFEANKRPRNPAGNEFKSFGAFLKDKKEGPWCYWISSHEPHRPYVEGSGEKAGIDPNKVKVPAYLPDHISIRKDIADYYAAVETFDRELGEALDQLKASGELDNTVIVVCSDNGWQMPRGLANLYDFGTHVPLIISWPGKFKQDVVADNLVTLNDLAPTFLQLGKVPVPADMTGKSLLPIVEAGKKDEKPRDYVVLGRERHAFVRRHGLGYPGRAIRTKDYLYIKNYEPNRWPAGDPPFYGDIDPYMFNWPGETKYYLIEHKDDPKVKSFFELGMGKRPAEELFDINKDPDELHNLAALPEYQKIKQELVAKLRNYLVATKDPRETNGNIQIWDTAAYFSEIDKTPKPSKEMQKRFKLDSSYNYLK
notes: as for B1

Key:
[1] = Desulfation of unsaturated heparin disaccharides by capillary electrophoresis; type: biochemical; conditions: ΔU±2SHNAc,6S, ΔU±2SHNS,6S (6-O-sulfatase); ΔU±2SHNS+6S (N-sulfamidase)
Procedure: The ability of both enzymes to desulfate unsaturated heparin and chondroitin disaccharides was assessed essentially as described for capillary electrophoresis based compositional analyses of enzymatically generated glycosaminoglycan di- and tetra-saccharides (Venkataraman et al., 1999 Science 286, 537-542). For these studies, the following disaccharide substrates were tested: ΔUGlcNAc,6S; ΔU2SGlcNAc,6S; ΔUGlcNS; ΔUGlcNS,6S; ΔU2SGlcNS,6S; and ΔUGalNac,6S. Reactions included 500 μM substrate, 10 μM enzyme, 50 mM sodium acetate, pH 6.5 and +/−2 mM CaCl2 in a 20 μL reaction volume.

[2] = Compositional analyses of sulfatase treated heparin; type: biochemical; conditions: 8 hours preincubation, then heparinase I and III
Procedure: 20 μg heparin were preincubated with 10 μM 6-O-sulfatase or N-sulfamidase for 8 hours at 30° C. in a 20 μL reaction which included 25 mM sodium acetate, pH 7.0 and 2 mM calcium acetate, pH 7.0. Following this preincubation, enzymes were inactivated by heat denaturation at 95° C. for 10 minutes and heparin exhaustively digested overnight at 37° C. by the addition of 2 μL of a concentrated enzyme cocktail containing heparinase I and III. Subsequent CE-based compositional analyses of heparinase-derived disaccharides were completed as described (Venkataraman et al., 1999 Science 286, 537-542).

[3] = Storage stability of purified enzymes; type: physicochemical; conditions: 4° C., ~10 mg/mL
Procedure: Final protein concentrations were determined colorimetrically using the Bradford Assay (Bio-Rad, Hercules, Calif.) and confirmed by UV absorption spectroscopy using theoretical molar extinction coefficients (ε280) of 94,730 M^−1 (61,572 Da) and 86,340 (53,193 Da) for the NH2-terminally truncated ORF B (6-O-sulfatase) and ORF C(N-sulfamidase), respectively. These values were calculated for thrombin-cleaved proteins lacking a 6×His purification tag. Enzymes were stored at 4° C. at a concentration of ˜10 mg/mL.

[4] = Pilot capillary electrophoresis desulfation assay with monosulfated 4-MU gluco- and galactopyranosides; type: biochemical
Procedure: Initial assessment of substrate specificity and pH optima was made using a capillary electrophoresis-based assay for the detection of desulfated products. Preliminary enzyme activity was measured against the following series of fluorescently derivatized, monosulfated gluco and galactopyranosides: 4-MU-GlcNAc,6S, 4-MU-GlcNS, 4-MU-GalNAc,6S and 4-MU-Gal6S. Standard reactions included 1 mM substrate, 1-10 μM enzyme, 50 mM sodium acetate, pH 5.5-6.5 and 5 mM CaCl2 in a 20 μL reaction volume. For pilot experiments, exhaustive reactions involved overnight incubations at 30° C. Enzyme was inactivated by heat denaturation at 95° C. for 10 minutes, followed by a 10-fold dilution into water. Reaction products were resolved by capillary electrophoresis using a 25 cm long, 75 μm (i.d.) fused silica capillary (Agilent Technologies, Palo Alto, Calif.). Electrophoresis was carried out under negative polarity by applying a voltage of −15 kV (˜1.2 W) for 10 minutes. Substrate desulfation was measured as a percentage of substrate depletion relative to a minus enzyme control as monitored by the loss of UV absorbance at 315 nm detected at approximately 4 minutes. A standard capillary electrophoresis buffer included 50 mM Tris and 10 μM dextran sulfate (average MW of 10,000 Da) adjusted to pH 2.0 with phosphoric acid. At this pH, saccharide migration occurred on the basis of charge without the influence of electro-osmotic flow.

[5] = Sequential degradation of heparin oligosaccharide by exo-enzymes, MALDI-MS; type: biochemical; conditions: after 2-O-sulfatase and Δ4,5 glycuronidase
Procedure: The purified pentasulfated tetrasaccharide ΔU2SHNS,6SIHNS,6S was provided by Dr. I. Capila (Momenta Pharmaceuticals, Cambridge, Mass.). Enzyme sequence was as follows: 2-O-sulfatase→Δ4,5 glycuronidase→6-O-sulfatase→N-sulfamidase. After each step, the enzyme was heat inactivated and 20 μL aliquots removed prior to the addition of the next enzyme in the sequence. Initial reaction conditions included 20 mM Tris, pH 7.2 and 60 nanomoles of tetrasaccharide in a 120 μL reaction volume. All enzyme reactions were carried out at 30° C. Enzyme specific conditions included the following: 1) 2-O-sulfatase, 1 μM enzyme, 6 hours; 2) Δ4,5 glycuronidase, 1 μM enzyme, 6 hours; 3) 6-O-sulfatase, 5 μM enzyme, 5 mM CaCl2, 12-15 hours; 4) N-sulfamidase, same conditions as for 6-O-sulfatase. Molecular masses of enzyme products were determined by MALDI mass spectrometry using established methods (Rhomberg et al., 1998, Proc Natl Acad Sci USA 95, 12232-12237).

[6] = ESI mass spectrometry of desulfation of non-derivatized sulfated glucosamine monosaccharides; type: biochemical
Procedure: Electrospray ionization mass spectrometry was performed in the negative ion mode using an Agilent 1100 Series VL LC/MSD Trap. For simplicity, the samples were prepared by adding MeOH directly to the enzymatic reaction mixtures without purification and were directly injected into the source of the mass spectrometer using a syringe pump at a rate of ˜8 μl/min, The SPS function of the software (LC/MSD Trap Software 4.1 Build 143, MSD Trap Control Version 5.0 Build 65) was used to tune the instrument with the target mass set to the mass of the substrate, the sample stability set to 50% and the drive level set to 100%. Data were acquired over the scan range of 100-2200 m/z by accumulating 30,000 ions per scan. Capillary voltage was set to 3000 V. Nitrogen was used as the drying gas while helium was used as the nebulizing gas, with flow rates of 5 and 15 liters/min, respectively. In each case a minimum of ten spectra were averaged.
For the experiments determining the order of action of the enzymes, reactions were carried out with 100 μM substrate, 2 mM CaCl2, 5 μM enzyme and various buffers at 37° C. overnight. Samples were diluted 1:10 in MeOH prior to analysis in the ESI, and the carrier solvent was H2O:MeOH (1:10, v/v). For the time course experiments showing desulfation of different unlabeled monosaccharides, reactions were carried out with 2.5 mM substrate, 5 mM CaCl2, 1 μM enzyme and 50 mM acetate buffer at pH 5.5 for the 6-O-sulfatase and pH 6.0 for the N-sulfamidase at 37° C. Reactions were quenched by diluting the samples 1:4 in MeOH. The carrier solvent was H2O:MeOH (1:4, v/v). In these experiments, 4-MU-GlcNS was added prior to injection as an internal standard to monitor ionization efficiency and mass accuracy within the source and trap.

Molecule | desulfation of unsaturated heparin disaccharides [1] | effect of sulfatase pretreatment of unfractionated heparin on heparinase-derived cleavage products [2] | retention of enzyme activity on storage [3] | substrate specificity among four monosulfated 4-MU substrates [4] | activity on the two 6-O-sulfated galactose sugars ([4]; 4-MU-Gal6S and 4-MU-GalNAc,6S) | desulfation of the trisaccharides at the non-reducing end [5] | effect of the presence of a 3-O-sulfate [6] | requirement at the 2-amino position of glucosamine [6] | comparative kinetic analysis GlcNAc,6S vs. GlcNS,6S ([6]; time course) | activity at the 2-amino position when a second sulfate at the 6-O position is present ([6]; substrate HNS,6S)
B1 | None of the unsaturated disaccharides were desulfated | no effect on the compositional profile | Full enzyme activity was retained for several months | specific for the 6-O-sulfated glucosamine | did not act upon | able to singularly desulfate both trisaccharides | completely inhibited | required a substituted amine (acetate or sulfate) at the 2-amino position | only a modest preference of the enzyme for the monosulfated substrate | –
B2 | None of the unsaturated disaccharides were desulfated | no effect on the compositional profile | Full enzyme activity was retained for several months | could only hydrolyze the glucosamine sulfated at the 2-amino position | – | not able to do so | completely inhibited | – | – | absolutely abolished
